Substitutions are numbered along the chain they refer to. Names and notes keep the numbering of the source. Each block holds one binder with its values, some of them ahead of it.
Assays:
[1] = molecular target: T1, human FcγRIIb (human, UniProt P31994 43-217, limits assumed); assay: ratio of this variant's SPR KD for FcγRIIaH to its KD for FcγRIIb
T1 construct: also called FcγIIB; hFcgRIIb
T1 sequence: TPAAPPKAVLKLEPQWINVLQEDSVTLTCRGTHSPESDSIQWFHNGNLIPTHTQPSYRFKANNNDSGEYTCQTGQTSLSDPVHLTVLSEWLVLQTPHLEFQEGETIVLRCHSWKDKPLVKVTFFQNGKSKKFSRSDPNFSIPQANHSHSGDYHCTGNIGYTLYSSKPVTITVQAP
Text: Furthermore, KD(IIaR)/KD(IIb) and KD(IIaH)/KD(IIb) in the table respectively represent the value obtained by dividing the KD value of each variant for FcγRIIaR by the KD value of each variant for FcγRIIb, and the value obtained by dividing the KD value of each variant for FcγRIIaH by the KD value of each variant for FcγRIIb.

[2] = molecular target: T2, human FcγRIa (human, UniProt P12314 16-292, limits assumed); assay: SPR (Biacore), antibody captured on chip, FcγR as analyte, HBS-EP+, 25°C;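 also: FcγR binding response divided by the amount of captured antibody, then expressed relative to the reference antibody ×100, with antibodies captured via immobilized Protein A, A/G, L or antigen peptides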
T2 construct: Analyte in solution on Biacore; also called FcgRIa; hFcgRIa
T2 sequence (P12314 16-292 limits assumed): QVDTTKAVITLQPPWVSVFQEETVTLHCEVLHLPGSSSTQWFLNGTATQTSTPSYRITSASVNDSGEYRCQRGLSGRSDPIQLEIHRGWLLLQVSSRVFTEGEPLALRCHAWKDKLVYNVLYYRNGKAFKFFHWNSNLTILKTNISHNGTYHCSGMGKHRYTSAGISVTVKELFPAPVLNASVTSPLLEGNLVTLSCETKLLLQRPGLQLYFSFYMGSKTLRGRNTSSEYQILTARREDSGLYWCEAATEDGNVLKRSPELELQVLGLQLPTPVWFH
Experimental: (§1) Interaction between each modified antibody and Fcγ receptor prepared in the manner described above was analyzed using the Biacore T100 (GE Healthcare), Biacore T200 (GE Healthcare), Biacore A100 or Biacore 4000. HBS-EP+ (GE Healthcare) was used for the running buffer, and measurements were carried out at 25° C. The chips used were chips in which antigen peptides, Protein A (Thermo Scientific), Protein A/G (Thermo Scientific) or Protein L (ACTIGEN or BioVision) were immobilized on the Series S Sensor Chip CM5 (GE Healthcare) or Series S Sensor Chip CM4 (GE Healthcare) by amine coupling, or chips in which preliminarily biotinylated antigen peptides were allowed to interact and then immobilized on the Series S Sensor Chip SA (certified) (GE Healthcare). The target antibodies were captured on these sensor chips, Fcγ receptor diluted with the running buffer was allowed to interact, followed by measurement of the amount of bound antibody. The amounts bound were compared between antibodies. However, since the amount of Fcγ receptor bound depends on the amount of captured antibody, the values used for comparison were first corrected by dividing the amount of Fcγ receptor bound by the captured amount of each antibody. Through reaction with 10 mM glycine-HCl at pH 1.5, the sensor chips were regenerated by washing off antibody captured on the sensor chips and used repeatedly.
(§2) Binding strength was evaluated according to the following method based on the results of analyzing the interaction with each FcγR. […] That value was then further multiplied by 100, and the resulting value was used as an indicator of relative binding activity to each FcγR.

[3] = molecular target: T3, human FcγRIIa(R) (human, UniProt P12318 36-217); assay: as above
T3 construct: Analyte in solution on Biacore; also called FcγRIIa type R; FcgRIIaR
T3 chain: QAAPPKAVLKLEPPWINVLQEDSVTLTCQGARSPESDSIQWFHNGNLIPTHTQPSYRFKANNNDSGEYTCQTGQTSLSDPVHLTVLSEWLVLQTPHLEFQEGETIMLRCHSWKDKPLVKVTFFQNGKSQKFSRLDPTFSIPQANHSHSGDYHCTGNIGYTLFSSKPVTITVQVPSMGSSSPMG
Experimental: as §1, §2

[4] = molecular target: T4, human FcγRIIa(H) (human, UniProt P12318 36-217); assay: as above
T4 construct: Analyte in solution on Biacore; also called FcγRIIa type H; FcgRIIaH
T4 sequence: T3 chain with R133H
Experimental: as §1, §2

[5] = molecular target: T5, human FcγRIIb (human, UniProt P31994 43-217, limits assumed); assay: as above
T5 construct: Analyte in solution on Biacore; also called FcgRIIb; hFcgRIIb
T5 sequence: T1 sequence
Experimental: as §1, §2

[6] = molecular target: T6, human FcγRIIIa(F) (human, UniProt P08637 17-208, limits assumed); assay: as above
T6 construct: also called FcgRIIIaF; hFcgRIIIa(F)
T6 sequence (P08637 other isoform, or with tags, fused parts or gaps limits assumed): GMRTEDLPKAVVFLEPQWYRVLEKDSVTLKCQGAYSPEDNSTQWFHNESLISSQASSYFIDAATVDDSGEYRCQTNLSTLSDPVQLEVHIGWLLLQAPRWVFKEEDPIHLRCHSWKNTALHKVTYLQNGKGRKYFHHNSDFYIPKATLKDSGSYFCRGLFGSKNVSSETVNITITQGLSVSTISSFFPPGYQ
Experimental: as §1, §2

KD (IIaH)/KD (IIb) [1]: 34.7
B1: IL6R-BP087/IL6R-L (antibody, human IgG1)
heavy: QVQLQESGPGLVKPSETLSLTCAVSGHSISHDHAWSWVRQPPGEGLEWIGFISYSGITNYNPSLQGRVTISRDNSKNTLYLQMNSLRAEDTAVYYCARSLARTTAMDYWGEGTLVTVSSASTKGPSVFPLAPSSKSTSGGTAALGCLVKDYFPEPVTVSWNSGALTSGVHTFPAVLQSSGLYSLSSVVTVPSSSLGTQTYICNVNHKPSNTKVDKKVEPKSCDKTHTCPPCPAPEYLGGDSVFLFPPKPKDTLMISRTPEVTCVVVDVSHEDPEVKFNWYVDGVEVHNAKTKPREEQYNSTYRVVSVLTVLHQDWLNGKEYKCKVSNKALPKPIEKTISKAKGQPREPQVYTLPPSRDELTKNQVSLTCLVKGFYPSDIAVEWESNGQPENNYKTTPPVLDSDGSFFLYSKLTVDKSRWQQGNVFSCSVMHEALHNHYTQESLSLSP
light: DIQMTQSPSSLSASVGDRVTITCRASQDISSYLNWYQQKPGKAPKLLIYYTSRLHSGVPSRFSGSGSGTDFTFTISSLQPEDIATYYCQQGNTLPYTFGQGTKVEIK
notes: copies: 2 + 2

relative binding activity (% of GpH7-B3/GpL16-k0) [2]: 60% | relative binding activity (% of GpH7-B3/GpL16-k0) [3]: 0% | relative binding activity (% of GpH7-B3/GpL16-k0) [4]: 1% | relative binding activity (% of GpH7-B3/GpL16-k0) [5]: -1% | relative binding activity (% of GpH7-B3/GpL16-k0) [6]: 1%
B2: GpH7-B3 variant P329S / GpL16-k0 (antibody, human IgG1)
heavy: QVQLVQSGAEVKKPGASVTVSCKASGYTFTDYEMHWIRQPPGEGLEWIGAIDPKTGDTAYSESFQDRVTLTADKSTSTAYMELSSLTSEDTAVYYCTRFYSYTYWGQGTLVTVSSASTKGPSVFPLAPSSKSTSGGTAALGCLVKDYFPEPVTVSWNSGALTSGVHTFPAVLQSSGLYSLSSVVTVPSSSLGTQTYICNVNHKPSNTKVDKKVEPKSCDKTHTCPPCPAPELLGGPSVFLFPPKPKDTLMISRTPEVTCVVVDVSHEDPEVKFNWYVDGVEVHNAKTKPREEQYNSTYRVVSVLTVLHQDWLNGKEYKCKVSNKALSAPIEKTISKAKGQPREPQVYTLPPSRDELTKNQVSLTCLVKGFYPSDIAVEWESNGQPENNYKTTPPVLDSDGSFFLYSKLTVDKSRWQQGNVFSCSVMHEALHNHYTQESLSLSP
light: DIVMTQSPLSLPVTPGEPASISCQASESLVHSNRNTYLHWYLQKPGQSPQLLIYKVSNRFSGVPDRFSGSGSGTDFTLKISRVEAEDVGVYYCSQNTHVPPTFGQGTKVEIE
notes: Anti-glypican-3 IgG1; constant region B3 = G1d with K439E

relative binding activity (% of GpH7-B3/GpL16-k0) [2]: 95% | relative binding activity (% of GpH7-B3/GpL16-k0) [3]: 28% | relative binding activity (% of GpH7-B3/GpL16-k0) [4]: 70% | relative binding activity (% of GpH7-B3/GpL16-k0) [5]: 23% | relative binding activity (% of GpH7-B3/GpL16-k0) [6]: 61%
B3: GpH7-B3 variant I332R / GpL16-k0 (antibody, human IgG1)
heavy: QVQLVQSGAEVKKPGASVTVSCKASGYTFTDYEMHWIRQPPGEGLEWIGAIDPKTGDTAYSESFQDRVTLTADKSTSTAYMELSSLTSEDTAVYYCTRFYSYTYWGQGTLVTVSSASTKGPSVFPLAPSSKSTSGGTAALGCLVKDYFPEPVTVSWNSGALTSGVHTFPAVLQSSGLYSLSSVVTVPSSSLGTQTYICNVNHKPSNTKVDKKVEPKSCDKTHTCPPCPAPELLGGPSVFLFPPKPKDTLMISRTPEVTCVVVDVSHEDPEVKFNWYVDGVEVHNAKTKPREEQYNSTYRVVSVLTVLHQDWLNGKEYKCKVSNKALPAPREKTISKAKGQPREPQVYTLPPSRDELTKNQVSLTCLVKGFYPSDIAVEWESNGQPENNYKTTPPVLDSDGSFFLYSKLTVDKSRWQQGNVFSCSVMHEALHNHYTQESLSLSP
light: B2 light
notes: as for B2

relative binding activity (% of GpH7-B3/GpL16-k0) [2]: 77% | relative binding activity (% of GpH7-B3/GpL16-k0) [3]: 12% | relative binding activity (% of GpH7-B3/GpL16-k0) [4]: 59% | relative binding activity (% of GpH7-B3/GpL16-k0) [5]: 27%
B4: GpH7-B3 variant I332K / GpL16-k0 (antibody, human IgG1)
heavy: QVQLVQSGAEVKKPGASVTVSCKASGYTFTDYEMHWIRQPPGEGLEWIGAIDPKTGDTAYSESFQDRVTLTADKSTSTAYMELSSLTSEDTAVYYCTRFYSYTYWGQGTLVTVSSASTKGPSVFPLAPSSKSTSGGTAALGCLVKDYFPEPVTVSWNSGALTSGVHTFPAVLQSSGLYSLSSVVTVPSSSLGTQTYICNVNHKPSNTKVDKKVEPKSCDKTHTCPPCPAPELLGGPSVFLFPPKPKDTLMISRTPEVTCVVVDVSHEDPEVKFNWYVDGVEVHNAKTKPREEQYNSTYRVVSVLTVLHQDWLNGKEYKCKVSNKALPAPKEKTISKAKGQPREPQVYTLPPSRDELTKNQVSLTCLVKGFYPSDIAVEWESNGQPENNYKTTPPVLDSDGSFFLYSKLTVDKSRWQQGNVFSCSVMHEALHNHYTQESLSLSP
light: B2 light
notes: as for B2

relative binding activity (% of GpH7-B3/GpL16-k0) [2]: 94% | relative binding activity (% of GpH7-B3/GpL16-k0) [3]: 1% | relative binding activity (% of GpH7-B3/GpL16-k0) [4]: 0% | relative binding activity (% of GpH7-B3/GpL16-k0) [5]: 0% | relative binding activity (% of GpH7-B3/GpL16-k0) [6]: 0%
B5: GpH7-B3 variant P329W / GpL16-k0 (antibody, human IgG1)
heavy: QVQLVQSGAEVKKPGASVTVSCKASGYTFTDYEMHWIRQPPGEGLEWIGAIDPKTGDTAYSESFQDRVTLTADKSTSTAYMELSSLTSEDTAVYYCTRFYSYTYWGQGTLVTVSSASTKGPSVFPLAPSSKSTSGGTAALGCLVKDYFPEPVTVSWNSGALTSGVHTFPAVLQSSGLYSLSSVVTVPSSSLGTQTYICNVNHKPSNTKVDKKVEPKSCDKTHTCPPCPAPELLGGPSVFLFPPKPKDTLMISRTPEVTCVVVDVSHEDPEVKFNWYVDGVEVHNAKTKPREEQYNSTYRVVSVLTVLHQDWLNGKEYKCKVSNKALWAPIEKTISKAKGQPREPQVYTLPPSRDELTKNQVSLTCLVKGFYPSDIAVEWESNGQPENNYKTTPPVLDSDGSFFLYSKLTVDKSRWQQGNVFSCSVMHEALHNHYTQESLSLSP
light: B2 light
notes: as for B2

relative binding activity (% of GpH7-B3/GpL16-k0) [2]: 98% | relative binding activity (% of GpH7-B3/GpL16-k0) [3]: 72% | relative binding activity (% of GpH7-B3/GpL16-k0) [4]: 58% | relative binding activity (% of GpH7-B3/GpL16-k0) [5]: 63% | relative binding activity (% of GpH7-B3/GpL16-k0) [6]: 34%
B6: GpH7-B3 variant P331K / GpL16-k0 (antibody, human IgG1)
heavy: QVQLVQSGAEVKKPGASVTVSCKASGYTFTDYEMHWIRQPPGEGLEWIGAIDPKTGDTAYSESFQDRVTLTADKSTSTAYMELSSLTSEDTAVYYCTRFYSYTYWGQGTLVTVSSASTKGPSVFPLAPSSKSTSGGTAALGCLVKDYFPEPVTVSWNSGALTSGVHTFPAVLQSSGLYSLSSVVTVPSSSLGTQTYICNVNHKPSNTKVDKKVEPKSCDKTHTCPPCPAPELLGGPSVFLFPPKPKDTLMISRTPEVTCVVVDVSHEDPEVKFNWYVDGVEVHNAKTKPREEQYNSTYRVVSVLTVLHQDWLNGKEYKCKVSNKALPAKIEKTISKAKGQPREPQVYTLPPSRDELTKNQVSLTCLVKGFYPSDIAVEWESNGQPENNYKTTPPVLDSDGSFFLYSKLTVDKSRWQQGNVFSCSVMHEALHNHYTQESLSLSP
light: B2 light
notes: as for B2

relative binding activity (% of GpH7-B3/GpL16-k0) [2]: 76% | relative binding activity (% of GpH7-B3/GpL16-k0) [3]: -1% | relative binding activity (% of GpH7-B3/GpL16-k0) [4]: 0% | relative binding activity (% of GpH7-B3/GpL16-k0) [5]: -3% | relative binding activity (% of GpH7-B3/GpL16-k0) [6]: 0%
B7: GpH7-B3 variant P329Y / GpL16-k0 (antibody, human IgG1)
heavy: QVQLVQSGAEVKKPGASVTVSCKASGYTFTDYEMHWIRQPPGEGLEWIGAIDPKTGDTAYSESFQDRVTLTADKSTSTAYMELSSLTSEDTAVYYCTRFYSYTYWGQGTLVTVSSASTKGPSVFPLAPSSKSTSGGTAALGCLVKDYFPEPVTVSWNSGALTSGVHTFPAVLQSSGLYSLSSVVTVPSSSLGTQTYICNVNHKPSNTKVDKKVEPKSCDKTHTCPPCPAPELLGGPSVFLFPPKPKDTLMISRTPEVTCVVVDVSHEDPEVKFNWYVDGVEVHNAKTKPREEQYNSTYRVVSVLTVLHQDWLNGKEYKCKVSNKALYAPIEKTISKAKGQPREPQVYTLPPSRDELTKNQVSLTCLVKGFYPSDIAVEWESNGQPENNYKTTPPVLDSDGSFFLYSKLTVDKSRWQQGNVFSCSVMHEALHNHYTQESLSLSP
light: B2 light
notes: as for B2

relative binding activity (% of GpH7-B3/GpL16-k0) [2]: 100% | relative binding activity (% of GpH7-B3/GpL16-k0) [3]: 34% | relative binding activity (% of GpH7-B3/GpL16-k0) [4]: 26% | relative binding activity (% of GpH7-B3/GpL16-k0) [5]: 41% | relative binding activity (% of GpH7-B3/GpL16-k0) [6]: 14%
B8: GpH7-B3 variant I332P / GpL16-k0 (antibody, human IgG1)
heavy: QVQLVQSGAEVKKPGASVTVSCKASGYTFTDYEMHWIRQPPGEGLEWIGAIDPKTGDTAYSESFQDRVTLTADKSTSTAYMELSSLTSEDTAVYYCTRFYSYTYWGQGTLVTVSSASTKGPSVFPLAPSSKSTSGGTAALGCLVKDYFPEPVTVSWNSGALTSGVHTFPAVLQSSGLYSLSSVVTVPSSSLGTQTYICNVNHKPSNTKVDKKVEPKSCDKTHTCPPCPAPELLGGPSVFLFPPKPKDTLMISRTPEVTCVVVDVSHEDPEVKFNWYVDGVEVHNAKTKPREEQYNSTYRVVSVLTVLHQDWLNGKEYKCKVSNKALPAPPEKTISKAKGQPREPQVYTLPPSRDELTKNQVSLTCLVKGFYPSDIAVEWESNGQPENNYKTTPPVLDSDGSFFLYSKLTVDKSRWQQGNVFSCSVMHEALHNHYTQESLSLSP
light: B2 light
notes: as for B2

relative binding activity (% of GpH7-B3/GpL16-k0) [2]: 33% | relative binding activity (% of GpH7-B3/GpL16-k0) [3]: -1% | relative binding activity (% of GpH7-B3/GpL16-k0) [4]: 0% | relative binding activity (% of GpH7-B3/GpL16-k0) [5]: -2% | relative binding activity (% of GpH7-B3/GpL16-k0) [6]: -1%
B9: GpH7-B3 variant P329E / GpL16-k0 (antibody, human IgG1)
heavy: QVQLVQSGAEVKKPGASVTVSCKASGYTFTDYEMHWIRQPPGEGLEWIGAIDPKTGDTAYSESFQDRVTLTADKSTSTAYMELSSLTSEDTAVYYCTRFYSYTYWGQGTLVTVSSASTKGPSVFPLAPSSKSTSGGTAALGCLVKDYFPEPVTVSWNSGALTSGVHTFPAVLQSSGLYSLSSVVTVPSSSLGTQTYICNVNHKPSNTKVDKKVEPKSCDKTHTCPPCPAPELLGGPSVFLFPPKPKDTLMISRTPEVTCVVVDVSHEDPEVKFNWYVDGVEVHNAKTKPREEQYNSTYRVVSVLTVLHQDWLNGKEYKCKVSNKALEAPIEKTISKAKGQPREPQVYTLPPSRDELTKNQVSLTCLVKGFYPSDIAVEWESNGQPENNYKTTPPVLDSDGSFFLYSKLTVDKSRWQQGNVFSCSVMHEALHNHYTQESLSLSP
light: B2 light
notes: as for B2

relative binding activity (% of GpH7-B3/GpL16-k0) [2]: 92% | relative binding activity (% of GpH7-B3/GpL16-k0) [3]: 1% | relative binding activity (% of GpH7-B3/GpL16-k0) [4]: 1% | relative binding activity (% of GpH7-B3/GpL16-k0) [5]: 0% | relative binding activity (% of GpH7-B3/GpL16-k0) [6]: 4%
B10: GpH7-B3 variant P329G / GpL16-k0 (antibody, human IgG1)
heavy: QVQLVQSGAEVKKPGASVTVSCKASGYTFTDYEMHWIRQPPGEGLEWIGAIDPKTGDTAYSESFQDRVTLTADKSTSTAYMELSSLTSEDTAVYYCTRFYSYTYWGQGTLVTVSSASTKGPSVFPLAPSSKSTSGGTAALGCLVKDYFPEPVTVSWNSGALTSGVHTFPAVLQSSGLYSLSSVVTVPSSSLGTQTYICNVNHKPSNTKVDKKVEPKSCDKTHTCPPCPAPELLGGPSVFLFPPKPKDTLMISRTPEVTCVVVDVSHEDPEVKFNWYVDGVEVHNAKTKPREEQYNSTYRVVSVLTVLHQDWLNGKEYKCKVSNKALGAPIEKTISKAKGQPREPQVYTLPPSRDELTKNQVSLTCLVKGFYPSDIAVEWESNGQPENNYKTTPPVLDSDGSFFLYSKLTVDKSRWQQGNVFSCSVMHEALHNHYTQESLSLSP
light: B2 light
notes: as for B2

relative binding activity (% of GpH7-B3/GpL16-k0) [2]: 23% | relative binding activity (% of GpH7-B3/GpL16-k0) [3]: -1% | relative binding activity (% of GpH7-B3/GpL16-k0) [4]: -1% | relative binding activity (% of GpH7-B3/GpL16-k0) [5]: -2% | relative binding activity (% of GpH7-B3/GpL16-k0) [6]: -1%
B11: GpH7-B3 variant P329D / GpL16-k0 (antibody, human IgG1)
heavy: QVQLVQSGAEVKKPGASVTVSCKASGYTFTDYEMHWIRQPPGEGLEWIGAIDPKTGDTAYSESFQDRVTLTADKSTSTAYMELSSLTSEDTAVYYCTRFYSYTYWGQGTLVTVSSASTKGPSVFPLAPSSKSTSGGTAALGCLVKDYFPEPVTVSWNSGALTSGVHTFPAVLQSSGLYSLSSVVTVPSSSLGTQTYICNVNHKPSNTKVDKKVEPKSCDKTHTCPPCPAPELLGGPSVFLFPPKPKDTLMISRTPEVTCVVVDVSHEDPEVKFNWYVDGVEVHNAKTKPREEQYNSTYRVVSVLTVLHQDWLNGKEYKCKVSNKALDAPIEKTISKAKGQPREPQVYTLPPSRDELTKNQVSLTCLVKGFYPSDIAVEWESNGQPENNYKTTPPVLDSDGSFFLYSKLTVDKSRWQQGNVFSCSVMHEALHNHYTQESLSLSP
light: B2 light
notes: as for B2
